Source: patent publication US10654925B2, “Anti-marinobufagenin antibodies and uses thereof” (priority 2018, dated 2020)
Positions count from the first letter of the chain named.

How the values were obtained:
[1] = Competitive ELISA, relative CTS specificity, free MBG as competitor; assay type: binding; settings: competition with immobilized MBG-BSA; normalized to MBG = 100%
Method: (§1) The specificity (relative affinity) of anti-MBG antibodies for MBG relative to various cardiotonic steroids (CTSs) was determined in a competitive ELISA. Each anti-MBG antibody was tested for its binding to immobilized MBG in the presence of free MBG, resibufogenin (RBG), cinobufagin (CINO), ouabain (OUB) or digoxin (DIG) as a competitor. A constant amount of an anti-MBG antibody (typically 1-5 μg/mL) and varying concentrations of each CTS (from 10^−12M to 10^−5M) were pre-incubated before being added to the MBG-BSA-coated wells. After washing of the wells, an anti-human Fc, HRP-conjugated secondary antibody (at 1:5000 dilution) was added to the wells and incubated at 37° C. for 1 hr. After washing of the wells, an appropriate HRP reagent (e.g., TMB ultra, Thermo Fisher) was added to the wells. OD at 450 nm was measured by a microplate reader. MBG at 10 μM was assumed to be 100% competed, and MBG at 1 pM was assumed to be 0% competed. The data was plotted as a titration of antibody-antigen binding relative to free CTS concentration in the competition reaction to determine the free CTS concentration (μM) giving 50% maximal binding of antibody to immobilized MBG. The relative specificity of an antibody for a CTS was normalized to MBG=100%.

[2] = test system: human umbilical cord venous endothelial cells (HUVEC); test: Reversal of MBG inhibition of HUVEC cell proliferation (3H-thymidine); assay type: cell-based; settings: MBG 2 nM, 48 hr
Method: MBG (2 nM) was incubated with an antibody (20 μg/mL in FIG. 3a with human anti-MBG mAbs, or varying concentrations (2.5-10 μg/mL) in FIG. 3b with humanized anti-MBG mAbs) prior to addition to cultured human umbilical cord venous endothelial cells (HUVEC). After 48 hr, DNA synthesis was assessed by incorporation of ^3H-thymidine.
HUVEC cells in endothelial cell growth medium were plated onto 96-well plates. The next day, the cells were pretreated with various antibodies (2.5-20 μg/mL) and then incubated with 2 nM MBG for 48 hr. [^3H]-Thymidine was added to each well. [^3H]-Thymidine-labeled DNA was assayed by harvesting the cells and assaying for ^3H using a PerkinElmer Wallac Tailux liquid scintillation counter. […] Means were tested for significance using Student's t-test.

[3] = test system: PKC-δ in the nucleus of primary rat cardiac fibroblasts; test: Inhibition of MBG-induced PKC-δ nuclear translocation (Western blot); settings: MBG 2 nM; nuclei isolated 30 min later; FIG. 2a
Method: MBG was incubated with an anti-MBG antibody prior to addition to cultured primary rat cardiac fibroblasts. Nuclei were isolated 30 min later and analyzed for amount of PKC-6.

[4] = Competitive ELISA, free CTS competitors overall (summary and footnote); assay type: binding; settings: competitors RBG, CINO, OUB, DIG; Table 2
Method: as §1

[5] = Competitive ELISA, relative CTS specificity, OUB as competitor; assay type: binding; settings: competition with immobilized MBG-BSA; normalized to MBG = 100%
Method: as §1

[6] = Competitive ELISA, relative CTS specificity, RBG as competitor; assay type: binding; settings: competition with immobilized MBG-BSA; normalized to MBG = 100%
Method: as §1

[7] = Competitive ELISA, relative CTS specificity, DIG as competitor; assay type: binding; settings: competition with immobilized MBG-BSA; normalized to MBG = 100%
Method: as §1

[8] = Competitive ELISA, relative CTS specificity, CINO as competitor; assay type: binding; settings: competition with immobilized MBG-BSA; normalized to MBG = 100%
Method: as §1

[9] = ELISA avidity estimate on MBG-BSA; assay type: binding; settings: wells coated with 2 μg/ml MBG-BSA; IgG
Method: (§2) The avidity of anti-MBG antibodies for MBG was estimated in an ELISA. Wells of a microtiter plate were coated with 2 μg/ml of either MBG-bovine serum albumin (BSA) or MBG-keyhole limpet hemocyanin (KLH). The wells were then blocked with 1% BSA. A test IgG antibody at varying concentrations (typically from about 0.0001 nM to about 25 nM) was added to the wells. The test IgG bound to immobilized MBG was detected with an anti-human Fc, horseradish peroxidase (HRP)-conjugated secondary antibody (Jackson ImmunoResearch). After washing of the wells, an appropriate HRP reagent (e.g., TMB ultra, Thermo Fisher) was added to the wells. Optical density (OD) at 450 nm was measured by a microplate reader. The concentration of test antibody at the midpoint of the binding curve is an estimate of avidity for MBG.

[10] = ELISA avidity estimate on MBG-KLH; assay type: binding; settings: wells coated with 2 μg/ml MBG-KLH; IgG
Method: as §2

B1: 238/239: human anti-MBG antibody, VH SEQ ID NO: 41, VL SEQ ID NO: 42 (antibody, listed as Homo sapiens, V domains shown)
VH: QLQLQESGPGLVKPSETLSLTCTVSGGSISSSSYYWGWIRQPPGKGLEWIGSIYYSGSTYYNPSLKSRVTISVDTSKNQFSLKLSSVTAADTAVYYCARVVVARTGTTISWFDPWGQGTLVTVSS
VL: QAVLTQPSSLSASPGASASLTCTLRSGINVDTYRIYWYQQKPGSPPQYLLRYKSDSDKQQGSGVPSRFSGSKDASANAGILLISGLQSEDEADYYCVIWHSSAWVFGGGTKLTVL
Rel. CTS Specificity as % of MBG Binding: MBG [1]: 100% | MBG inhibition of HUVEC cell proliferation, human mAbs ([2]; antibody 20 μg/mL, FIG. 3a): significantly reduced | amount of PKC-δ in the nucleus, MBG plus antibody [3]: to a lesser extent | reaction with CTS competitor molecules [4]: reacted with the CTS competitor OUB | Rel. CTS Specificity as % of MBG Binding: OUB [5]: 10%

B2: 1B-6C: human anti-MBG antibody, VH SEQ ID NO: 87, VL SEQ ID NO: 88 (antibody, listed as Homo sapiens)
VH: QVQLQESGPGLVKPSETLSLTCTVSGGSISSSSYYWGWIRQPPGKGLEWIGSIYYSGSTYYNPSLKSRVTISLDTSKNQFSLKLSSLTAADTAVYYCARVPAIRSSAIFDYWGQGTLVTVSS
light: QSVVTQPPSVSAAPGQKVTISCFGSRSNIGNNYVSWYQQFPGTAPQLLIFDNNKRPSGIPDRFSGSKSGTSASLGITGVQTGDEAEYYCGAWDSSLSAGAVFGGGTKLTVLGQPKAAPSVTLFPPSSEELQANKATLVCLISDFYPGAVTVAWKADSSPVKAGVETTTPSKQSNNKYAASSYLSLTPEQWKSHRSYSCQVTHEGSTVEKTVAPTECS
Rel. CTS Specificity as % of MBG Binding: MBG [1]: 100%

B3: H3L1: humanized anti-MBG antibody, VH H3 (SEQ ID NO: 11) with VL L1 (SEQ ID NO: 12) (antibody, V domains shown)
VH: EVQLQESGPGLVKPSETLSLTCTVSGDSITSGYWNWIRQPPGKGLEYMGYISYSGTTYYNPSLKSRITISRDTSKNQYSLKLSSVTAADTAVYYCARARYGYGFDYWGQGTLVTVSS
VL: DVVMTQSPLSLPVTLGQPASISCRSSQSIVHSNRNTYLEWFQQRPGQSPRRLIYKVSNRFSGVPDRFSGSGSGTDFTLKISRVEAEDVGVYYCFQGSHVPLTFGGGTKVEIK
modifications: Humanized VH sequence; Humanized VL sequence
amount of PKC-δ in the nucleus, MBG plus antibody [3]: reduced

B4: H2L2: humanized anti-MBG antibody, VH H2 (SEQ ID NO: 10) with VL L2 (SEQ ID NO: 13) (antibody, V domains shown)
VH: B3 VH with M48I, I67V, Y78F
VL: B3 VL with F41Y, R51L
modifications: Humanized VH sequence; Humanized VL sequence
MBG inhibition of HUVEC cell proliferation, humanized mAbs ([2]; antibody 2.5-10 μg/mL, FIG. 3b): significantly reduced | amount of PKC-δ in the nucleus, MBG plus antibody [3]: to a lesser extent

B5: H2L1: humanized anti-MBG antibody, VH H2 (SEQ ID NO: 10) with VL L1 (SEQ ID NO: 12) (antibody, V domains shown)
VH: B3 VH with M48I, I67V, Y78F
VL: B3 VL
modifications: Humanized VH sequence; Humanized VL sequence
amount of PKC-δ in the nucleus, MBG plus antibody [3]: to a lesser extent

B6: 2A-5A: human anti-MBG antibody, VH SEQ ID NO: 100, VL SEQ ID NO: 101 (antibody, listed as Homo sapiens)
VH: QVQLQESGPGLVKPSETLSLTCTVSGGSISSSSYYWGWIRQPPGKGLEWIGSIYYSGSTYYNPSLKSRVTISVDTSKNQFSLKLSSVTAADTAVYYCARFSRGGPFLWGRGTLVTVSS
light: QSVVTQPPSVSAAPGQKVTISCSGSSSNIGSYSVSWYQQLPGTAPKLLIYDNNKRPSGIPDRFSGSKSGTSATLGITGLQTGDEADYYCGTWDSSLSAYVFGSGTKVTVLGQPKANPTVTLFPPSSEELQANKATLVCLISDFYPGAVTVAWKADGSPVKAGVETTKPSKQSNNKYAASSYLSLTPEQWKSHRSYSCQVTHEGSTVEKTVAPTECS
Rel. CTS Specificity as % of MBG Binding: RBG [6]: 10% | Rel. CTS Specificity as % of MBG Binding: MBG [1]: 100% | reaction with CTS competitor molecules [4]: reacted with the CTS competitors RBG, CINO and DIG | Rel. CTS Specificity as % of MBG Binding: DIG [7]: 2.5% | Rel. CTS Specificity as % of MBG Binding: CINO [8]: 2.5% | Rel. CTS Specificity as % of MBG Binding: OUB [5]: 0%

B7: R4CE-10H: human anti-MBG antibody, VH SEQ ID NO: 80, VL SEQ ID NO: 81 (antibody, listed as Homo sapiens)
VH: QLQLQESGPGLVKPSQTLSLTCTVSGGSISSGGYYWSWIRQPPGKGLEWIGSIYHSGSTYYNPSLKSRVTISVDTSKNQFSLKLSSVTAADTAVYYCARVMYYYGSGSPYWYFDLWGRGTLVTVSS
light: QSVVTQPPSVSAAPGQKVTISCSGSSSNIGKNFVSWYQQFPGTAPKFLIYENSKRPSGIPDRISGSKSGTSATLAITGLQTGDEADYYCGTWDSSLSAVVFGGGTKLTVLSQPKAAPSVTLFPPSSEELQANKATLVCLISDFYPGAVTVAWKADSSPVKAGVETTTPSKQSNNKYAASSY
Rel. CTS Specificity as % of MBG Binding: MBG [1]: 100%

B8: 203/204: human anti-MBG antibody, VH SEQ ID NO: 30, VL SEQ ID NO: 31 (antibody, listed as Homo sapiens, V domains shown)
VH: QLQLQESGPGLVKPSETLSLTCTVSGGSISSYYWGWIRQPPGKGLEWIGSIYYSGSTYYNPSLKSRVTISVDTSKNQFSLQLKSVTPEDTAVYYCARVRPPAATFDYWGQGTLVTVSS
VL: QSVVTQPPSVSAAPGQKVSISCSGGSSNIGNNYVSWYQQLPGTAPRLLIYENNNRPSGIPDRFSGSKSGTSATLGITGLQTGDEADYYCGTWDSSLRAVVFGGGTKLTVL
Rel. CTS Specificity as % of MBG Binding: RBG [6]: 10% | Rel. CTS Specificity as % of MBG Binding: MBG [1]: 100% | reaction with CTS competitor molecules [4]: reacted with CTS competitor RBG | Estimated avidity (KA) (antibody concentration at 50% maximal binding to antigen, or EC50), Antigen 1 (MBG-BSA) [9]: 0.32 nM | Rel. CTS Specificity as % of MBG Binding: DIG [7]: 0% | Rel. CTS Specificity as % of MBG Binding: CINO [8]: 0% | Estimated avidity (KA) (antibody concentration at 50% maximal binding to antigen, or EC50), Antigen 2 (MBG-KLH) [10]: 0.20 nM | Rel. CTS Specificity as % of MBG Binding: OUB [5]: 0%

B9: 205/207: human anti-MBG antibody, VH SEQ ID NO: 53, VL SEQ ID NO: 54 (antibody, listed as Homo sapiens, V domains shown)
VH: QLQLQESGPGLVKPSETLSLTCTVSGGSISSSSYYWGWIRQPPGKGLEWIGSIYYSGSTYYNPSLKSRVTISVDTSKNQFSLKLSSVTAADTAVYYCARFHTWAPRAFDIWGQGTMVTVSS
VL: QSVVTQPPSVSAAPGQEVTISCSGSSSNIGNNYVSWYQQLPGTAPKLLIYDNNKRPSGIPDRFSGSKSGTSATLGITGLQTGDEADYYCGTWDSSLSALFGGGTKLTVL
Rel. CTS Specificity as % of MBG Binding: MBG [1]: 100% | Rel. CTS Specificity as % of MBG Binding: DIG [7]: 0% | Rel. CTS Specificity as % of MBG Binding: CINO [8]: 0% | Rel. CTS Specificity as % of MBG Binding: OUB [5]: 0%
